Results reported in paper PMC10419011.
One block for each substance: values may come before it.

How the values were obtained:
[1] = molecular target: HA-Y2R-eYFP_N1 C203^45.50A (human) (UniProt P49146)
[2] = molecular target: HA-Y2R-eYFP_N1 C123^3.25A (human) (UniProt P49146)
[3] = molecular target: Y1R-eYFP_N1 C198^45.50A (human) (UniProt P25929)
[4] = molecular target: Y1R-eYFP_N1 C113^3.25A (human) (UniProt P25929)
[5] = molecular target: MOR-eYFP_pVitro2 (wild-type µ-type opioid receptor) (UniProt P35372); assay: FRET or BRET; arrestin recruitment in live HEK293 cells: Nluc-arr3 (donor) and MOR-eYFP (acceptor), stimulated with β-endorphin (0.01 nM to 10 µM)
[6] = molecular target: AT1R-eYFP_N1 (wild-type angiotensin II type 1 receptor) (UniProt P30556); assay: FRET or BRET; arrestin recruitment in live HEK293 cells: Nluc-arr3 (donor) and AT1R-eYFP (acceptor), stimulated with agonist peptide (angiotensin II; 0.01 nM to 10 µM)
Sequence of AT1R-eYFP_N1 (wild-type angiotensin II type 1 receptor) (P30556 whole entry): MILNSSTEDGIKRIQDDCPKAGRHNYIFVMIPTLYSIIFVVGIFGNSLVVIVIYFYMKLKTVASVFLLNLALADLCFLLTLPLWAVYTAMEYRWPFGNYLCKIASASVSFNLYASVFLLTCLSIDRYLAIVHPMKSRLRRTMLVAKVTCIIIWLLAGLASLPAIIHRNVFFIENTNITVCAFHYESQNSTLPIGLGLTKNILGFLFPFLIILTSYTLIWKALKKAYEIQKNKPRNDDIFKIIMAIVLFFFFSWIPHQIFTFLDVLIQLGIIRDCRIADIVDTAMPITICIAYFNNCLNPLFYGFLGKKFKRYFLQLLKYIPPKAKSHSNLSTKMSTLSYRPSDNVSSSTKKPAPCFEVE

[7] = molecular target: MOR-eYFP_pVitro2 (wild-type µ-type opioid receptor) (UniProt P35372); assay: FRET or BRET; arrestin recruitment in live HEK293 cells: Nluc-arr3 (donor) and MOR-eYFP (acceptor), stimulated with endomorphin-1 (0.01 nM to 10 µM)
[8] = molecular target: Y1R-eYFP_N1 (wild-type neuropeptide Y1 receptor) (human) (UniProt P25929); assay: FRET or BRET; arrestin recruitment in live HEK293 cells: Nluc-arr3 (donor) and receptor-eYFP (acceptor) co-transfected, stimulated with NPY (0.01 nM to 10 µM), HBSS with 20 mM HEPES pH 7.4, read 5, 10 and 15 min after stimulation
Sequence of Y1R-eYFP_N1 (wild-type neuropeptide Y1 receptor) (human) (P25929 whole entry): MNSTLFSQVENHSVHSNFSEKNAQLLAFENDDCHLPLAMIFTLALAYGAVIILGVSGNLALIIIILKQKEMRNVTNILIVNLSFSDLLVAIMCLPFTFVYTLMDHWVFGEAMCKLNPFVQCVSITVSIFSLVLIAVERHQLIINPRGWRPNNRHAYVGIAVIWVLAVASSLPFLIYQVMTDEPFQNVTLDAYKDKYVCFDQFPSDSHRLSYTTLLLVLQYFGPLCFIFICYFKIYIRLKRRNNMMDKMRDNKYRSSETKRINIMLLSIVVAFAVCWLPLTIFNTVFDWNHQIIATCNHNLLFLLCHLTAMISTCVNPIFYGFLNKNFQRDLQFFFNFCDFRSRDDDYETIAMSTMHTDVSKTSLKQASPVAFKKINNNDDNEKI

[9] = molecular target: HA-Y2R-eYFP_N1 (wild-type neuropeptide Y2 receptor) (human) (UniProt P49146); assay: as above
[10] = molecular target: FLAG-CRF1R-eGFP_N1 (wild-type corticotropin-releasing factor receptor 1, R2 isoform) (human (by the printed accession)) (UniProt P34998); assay: FRET or BRET; arrestin recruitment in live HEK293 cells: Nluc-arr3 (donor) and FLAG-CRF1R-eGFP (acceptor), stimulated with CRF (up to 10 µM)
Sequence of FLAG-CRF1R-eGFP_N1 (wild-type corticotropin-releasing factor receptor 1, R2 isoform) (human (by the printed accession)) (P34998 24-415): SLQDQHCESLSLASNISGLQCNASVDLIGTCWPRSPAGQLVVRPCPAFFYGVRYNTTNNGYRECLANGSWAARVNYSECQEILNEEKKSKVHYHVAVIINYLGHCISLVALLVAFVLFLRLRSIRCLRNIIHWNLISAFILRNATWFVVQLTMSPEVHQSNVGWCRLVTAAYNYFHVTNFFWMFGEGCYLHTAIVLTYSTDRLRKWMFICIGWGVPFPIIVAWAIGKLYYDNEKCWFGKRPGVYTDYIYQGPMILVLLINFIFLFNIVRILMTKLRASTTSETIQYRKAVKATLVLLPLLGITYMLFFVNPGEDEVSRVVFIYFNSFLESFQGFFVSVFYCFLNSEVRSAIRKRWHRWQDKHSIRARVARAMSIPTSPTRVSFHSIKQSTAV

[11] = molecular target: FLAG-CRF1R-eGFP_N1 C188^3.29A (human (by the printed accession)) (UniProt P34998); assay: as above
Sequence of FLAG-CRF1R-eGFP_N1 C188^3.29A (human (by the printed accession)) (P34998 24-415 C188A): as the sequence (P34998 24-415) above, with C165A counted along it

[12] = molecular target: Nluc-Y1R-eYFP_N1 C113^3.25A (human) (UniProt P25929); assay: FRET or BRET; NanoBRET ligand binding: membrane preparations of HEK293 cells with Nluc-Y1/2R-eYFP, TAMRA-labeled peptide titrated, 10 min at room temperature, HBSS with 20 mM HEPES pH 7.4, 0.1% BSA; unspecific binding (excess unlabeled NPY or antagonist) subtracted; biphasic fit
Sequence of Nluc-Y1R-eYFP_N1 C113^3.25A (human) (P25929 whole entry C113A): as the sequence (P25929 whole entry) above, with C113A counted along it

[13] = molecular target: Nluc-Y2R-eYFP_N1 (wild-type neuropeptide Y2 receptor) (human) (UniProt P49146); assay: as above

Sequence of Nluc-tagged bovine arrestin3 (P32120 whole entry): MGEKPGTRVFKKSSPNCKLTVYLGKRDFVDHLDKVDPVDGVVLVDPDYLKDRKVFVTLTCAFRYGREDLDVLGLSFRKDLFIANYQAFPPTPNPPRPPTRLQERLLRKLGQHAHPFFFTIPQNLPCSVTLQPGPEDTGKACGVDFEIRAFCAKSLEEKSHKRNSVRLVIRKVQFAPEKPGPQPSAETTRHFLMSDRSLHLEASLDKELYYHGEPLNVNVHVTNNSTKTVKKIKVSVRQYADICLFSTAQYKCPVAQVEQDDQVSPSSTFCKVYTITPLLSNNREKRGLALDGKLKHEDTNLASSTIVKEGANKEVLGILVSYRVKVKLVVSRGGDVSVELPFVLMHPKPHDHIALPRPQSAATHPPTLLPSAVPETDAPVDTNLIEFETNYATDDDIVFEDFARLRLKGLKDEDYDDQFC
Sequence of Y1R-eYFP_N1 C113^3.25A (human) (P25929 whole entry C113A): as the sequence (P25929 whole entry) above, with C113A counted along it
Sequence of Y1R-eYFP_N1 C198^45.50A (human) (P25929 whole entry C198A): as the sequence (P25929 whole entry) above, with C198A counted along it

cAMP reporter gene assay (Gi/o pathway): shift of the EC50 of NPY against wild-type Y2R; full activation at 10 µM NPY [1]: 10000 fold
cAMP reporter gene assay (Gi/o pathway): shift of the EC50 of NPY against wild-type Y2R; full activation at 10 µM NPY [2]: 10000 fold
inositol monophosphate accumulation via chimeric G-protein: shift of EC50 against wild-type Y1R (57% loss of Emax) [3]: 50 fold
inositol monophosphate accumulation via chimeric G-protein: shift of EC50 against wild-type Y1R (41% loss of Emax) [4]: 26 fold
Substance: neuropeptide Y (NPY) (from UniProt P01303 29-64)

EC50 of the agonist β-endorphin for arrestin3 recruitment [5]: > 3000 nM
EC50 of the agonist for arrestin3 recruitment [6]: 3.6 nM
EC50 of the agonist endomorphin-1 for arrestin3 recruitment [7]: 375 nM
EC50 of the agonist NPY for arrestin3 recruitment [8]: 8 nM
EC50 of the agonist NPY for arrestin3 recruitment [9]: 96 nM
EC50 of the agonist CRF for arrestin3 recruitment [10]: 37 nM
fold shift in the agonist's EC50 for arrestin3 recruitment against wild-type CRF1R [11]: 8 fold
Substance: Nluc-tagged bovine arrestin3 (from UniProt P32120 1-420) (natural protein)

fold shift in Kd against wild-type Y1R [12]: 7 fold
Kd of the high-affinity state [13]: 2.3 nM
Kd of the low-affinity state [13]: 267 nM
Substance: K^18-TAMRA-NPY (peptide)
